From PMC3856478 (2013)

Biological target: T1, Colicin E9 OBS1 peptide 2-18 (Escherichia coli, UniProt P09883)
T1 chain: SGGDGRGHNTGAHSTSG
Assay: ITC

B1: OmpF (protein)
chain: AEIYNKDGNKVDLYGKAVGLHYFSKGNGENSYGGNGDMTYARLGFKGETQINSDLTGYGQWEYNFQGNNSEGADAQTGNKTRLAFAGLKYADVGSFDYGRNYGVVYDALGYTDMLPEFGGDTAYSDDFFVGRVGGVATYRNSNFFGLVDGLNFAVQYLGKNERDTARRSNGDGVGGSISYEYEGFGIVGAYGAADRTNLQEAQPLGNGKKAEQWATGLKYDANNIYLAANYGETRNATPITNKFTNTSGFANKTQDVLLVAQYQFDFGLRPSIAYTKSKAKDVEGIGDVDLVNYFEVGATYYFNKNMSTYVDYIINQIDSDNKLGVGSDDTVAVGIVYQF
Q: For B1, which Kd is on record?
A: ~1000 nM
